Data on one molecule can be found in patent publication US20030143665A1 (NEW YORK UNIVERSITY, published 2003).

For orientation: Kd means the equilibrium constant for the complex coming apart.

In assay [1] the target is T1, recombinant CIRL (calcium-independent receptor of α-latrotoxin), full-length, expressed in COS cells (rat, UniProt O88917 22-1515).
T1 sequence: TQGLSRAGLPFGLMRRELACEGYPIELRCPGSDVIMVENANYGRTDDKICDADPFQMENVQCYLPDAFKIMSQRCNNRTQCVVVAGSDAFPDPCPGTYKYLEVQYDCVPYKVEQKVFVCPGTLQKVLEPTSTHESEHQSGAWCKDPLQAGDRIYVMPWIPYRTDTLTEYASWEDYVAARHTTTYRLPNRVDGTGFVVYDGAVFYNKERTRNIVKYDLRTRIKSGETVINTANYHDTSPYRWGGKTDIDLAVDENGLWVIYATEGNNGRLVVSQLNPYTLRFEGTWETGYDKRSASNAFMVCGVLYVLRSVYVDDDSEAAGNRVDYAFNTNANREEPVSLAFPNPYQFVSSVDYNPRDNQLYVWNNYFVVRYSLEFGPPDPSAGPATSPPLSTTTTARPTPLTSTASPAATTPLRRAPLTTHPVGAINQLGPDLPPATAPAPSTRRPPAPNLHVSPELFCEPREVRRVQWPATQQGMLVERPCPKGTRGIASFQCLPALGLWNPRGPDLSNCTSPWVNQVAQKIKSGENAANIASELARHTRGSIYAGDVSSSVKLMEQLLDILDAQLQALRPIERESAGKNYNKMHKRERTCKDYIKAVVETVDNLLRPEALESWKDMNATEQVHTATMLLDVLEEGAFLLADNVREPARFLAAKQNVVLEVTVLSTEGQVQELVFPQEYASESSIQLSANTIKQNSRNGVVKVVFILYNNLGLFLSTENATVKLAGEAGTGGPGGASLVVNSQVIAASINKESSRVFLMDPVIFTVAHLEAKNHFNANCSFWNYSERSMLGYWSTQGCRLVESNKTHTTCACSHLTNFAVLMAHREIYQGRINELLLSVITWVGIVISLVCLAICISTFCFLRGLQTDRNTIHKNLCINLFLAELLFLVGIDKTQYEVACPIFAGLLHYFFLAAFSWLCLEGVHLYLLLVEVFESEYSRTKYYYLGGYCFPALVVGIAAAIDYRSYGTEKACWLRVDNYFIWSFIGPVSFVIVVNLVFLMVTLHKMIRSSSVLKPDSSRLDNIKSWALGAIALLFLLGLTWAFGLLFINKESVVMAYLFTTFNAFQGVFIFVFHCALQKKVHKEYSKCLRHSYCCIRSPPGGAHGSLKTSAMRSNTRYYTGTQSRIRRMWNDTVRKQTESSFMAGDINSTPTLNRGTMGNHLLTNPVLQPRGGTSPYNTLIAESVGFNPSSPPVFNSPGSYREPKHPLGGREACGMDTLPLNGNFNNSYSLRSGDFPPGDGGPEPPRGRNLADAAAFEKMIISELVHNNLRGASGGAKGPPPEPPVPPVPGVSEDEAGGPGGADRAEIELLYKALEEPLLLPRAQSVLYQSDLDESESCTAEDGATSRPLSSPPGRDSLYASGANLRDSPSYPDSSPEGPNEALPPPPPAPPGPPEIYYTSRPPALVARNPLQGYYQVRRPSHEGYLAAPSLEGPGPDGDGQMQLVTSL

Assay [2] addresses T2, native CIRL of rat brain (calcium-independent α-latrotoxin binding sites in rat brain membranes); affinity … (rat, UniProt O88917 22-1515).
T2 sequence: T1 sequence

B1: α-latrotoxin (ligand)
chain: EGEDLTLEEKAEICSELELQQKYVDIASNIIGDLSSLPIAGKIAGTIAAAAMTATHVASGRLDIEQTLLGCSDLPFDQIKEVLENRFNEIDRKLDSHSAALEEITKLVEKSISVVEKTRKQMNKRFDEVMKSIQDAKVSPIISKINNFARYFDTEKERIRGLKLNDYILKLEEPNGILLHFKESRTPTDDSLQAPLFSIIEEGYAVPKSIDDELAFKVLYALLYGTQTYVSVMFFLLEQYSFLANHYYEKGYLEKYDEYFNSLNNVFLDFKSSLVGTGTSNNEGLLDRVLQVLMTVKNSEFLGLEKNGVDEMLNEKINLFNKIKEEIEGKQKMTLSETPENFAQISFDKDITTPIGDWRDGREVRYAVQYASETLFSKISHWSDPVSVREKACPTLRMPVDQTRRNVLVFRKFDSSKPQLVGEITPYLSNFIDIDRDLYNAASNPDSAVGFKEFTKLNYDGANIRATFDHGRTVFHAAAKSGNDKIMFGLTFLAKSTELNQPDKKGYTPIHVAADSGNAGIVNLLIQRGVSINSKTYHFLQTPLHLAAQRGFVTTFQRLMESPEININERDKDGFTPLHYAIRGGERILEAFLNQISIDVNAKSNTGLTPFHLAIIKNDWPVASTLLGSKKVDINAVDENNITALHYAAILGYLETTKQLINLKEINANVVSSPGLLSALHYAILYKHDDVASFLMRSSNVNVNLKALGGITPLHLAVIQGRKQILSLMFDIGVNIEQKTDEKYTPLHLAAMSKYPELIQILLDQGSNFEAKTNSGATPLHLATFKGKSQAALILLNNEVNWRDTDENGQMPIHGAAMTGLLDVAQAIISIDATVVDIEDKNSDTPLNLAAQNSHIDVIKYFIDQGADINTRNKKGLAPLLAFSKKGNLDMVKYLFDKNANVYIADNDGMNFFYYAVQNGHLNIVKYAMSEKDKFEWSNTDNNRRDECPNEECAISHFAVCDAVQFDRIEIVKYFVGTLGNFAICGPLHQAARYGHLDIVKYLVEEEFLSVDGSKTDTPLCYASENGHFTVVQYLVSNGAKVNHDCGNGMTAIDKAITKNHLQVVQFLAANGVDFRRKNSRGTTPFLTAVAENALHIAEYLIREKRQDININEQNVDKDTALHLAVYYKNLQMIKLLIKYGIDVTIRNAYDKTALDIAIDAKFSNIVEYLKTKSGKFRR
modifications: 125I label (chloramine T procedure) in the binding and immunoprecipitation assays; coupled to Sepharose in the affinity chromatography
With B1, the figures for the Kd in assay [1] and in assay [2] were 0.16 nM and 0.28 nM, respectively.
